Holding throughout (assay): receptor-Fc IP
Assay [1] concerns the target T1, VEGFR-2-Fc (UniProt P35968 20-322).
T1 construct: domain: first 3 Ig domains; conditioned supernatant of 293T cells; also called VEGFR-2-Fc fusion protein; not shown: Fc fragment of the pIg vector
How it is done: (§1) The binding assay procedure was identical to the immunoprecipitation using pentahistidine antibody described in Example 2, apart from the composition of the immunoprecipitation (IP) mixes. The IP mixes used for the receptor binding analysis were as follows: For VEGFR-1 binding assays, the IP mix was phosphate buffered saline (PBS) containing 1.5% BSA, 0.06% Tween 20, 3 μg/ml heparin and 400 ng/ml VEGFR-1-Fc fusion protein (100 μl of this IP mix was added to 200 μl of sample supernatant); for VEGFR-2 binding assays, the IP mix was 82% conditioned cell supernatant from 293T cells transiently expressing VEGFR-2-Fc fusion protein in mixture with 18% of a PBS solution that contained 5% BSA, 0.2% Tween 20, and 10 μg/ml heparin (250 μl of IP mix was added to 200 μl of sample supernatant); and for VEGFR-3 binding assays, the IP mix was 82% conditioned cell supernatant from 293T cells transiently expressing VEGFR-3-Fc fusion protein, 18% of PBS containing 5% BSA, 0.2% Tween 20, and 10 μg/ml heparin (250 μl of IP mix was added to 200 μl of sample supernatant).

In assay [2] the target is T2, VEGFR-1-Fc (UniProt P17948 27-338).
T2 construct: domain: first three Ig domains; expressed in Drosophila S2 cells, purified on Protein A sepharose; also called VEGFR-1-Fc fusion protein; not shown: Fc fragment from the Signal-pIgPlus vector
As for the experimental part:
as §1

Assay [3] deals with T3, VEGFR-3-Fc (UniProt P35916 25-328).
T3 construct: domain: first three Ig domains; conditioned supernatant of 293T cells; also called VEGFR-3-Fc fusion protein; not shown: Fc fragment of the pIg vector
T3 sequence (looked up): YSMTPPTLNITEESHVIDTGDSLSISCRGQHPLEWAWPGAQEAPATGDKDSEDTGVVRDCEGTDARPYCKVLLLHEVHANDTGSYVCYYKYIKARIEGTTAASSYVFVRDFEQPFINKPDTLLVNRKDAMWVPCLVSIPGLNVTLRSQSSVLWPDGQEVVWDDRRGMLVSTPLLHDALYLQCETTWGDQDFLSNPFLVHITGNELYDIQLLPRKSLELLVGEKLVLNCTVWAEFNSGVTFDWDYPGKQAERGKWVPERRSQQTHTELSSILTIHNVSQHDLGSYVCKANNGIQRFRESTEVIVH
As for the experimental part: as §1

T1 sequence (P35968 20-322): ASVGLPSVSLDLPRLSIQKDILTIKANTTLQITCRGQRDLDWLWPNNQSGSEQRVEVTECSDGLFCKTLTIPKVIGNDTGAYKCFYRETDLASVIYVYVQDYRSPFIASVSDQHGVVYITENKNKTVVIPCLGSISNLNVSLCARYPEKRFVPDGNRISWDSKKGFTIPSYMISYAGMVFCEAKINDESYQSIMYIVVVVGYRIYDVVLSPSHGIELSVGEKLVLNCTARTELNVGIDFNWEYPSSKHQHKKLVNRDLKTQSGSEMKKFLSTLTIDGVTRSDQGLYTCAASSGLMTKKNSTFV
T2 sequence (P17948 27-338): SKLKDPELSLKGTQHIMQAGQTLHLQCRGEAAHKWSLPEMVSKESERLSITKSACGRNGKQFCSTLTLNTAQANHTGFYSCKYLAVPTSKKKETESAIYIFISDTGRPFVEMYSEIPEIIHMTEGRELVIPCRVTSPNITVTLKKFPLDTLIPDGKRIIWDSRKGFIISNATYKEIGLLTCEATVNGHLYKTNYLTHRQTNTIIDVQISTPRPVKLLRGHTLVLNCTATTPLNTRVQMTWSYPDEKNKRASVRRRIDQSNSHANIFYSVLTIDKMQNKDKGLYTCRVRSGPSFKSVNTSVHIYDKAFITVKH

B1: 53-16 (ligand)
chain: AHYNTEILKSIDNEWRKTQCMPIETLVDIFQEYPDEIEYIFKPPCVSVYRCGGCCNSEGLQCMNTSTSYLSKTLFEITVPLSQGPKPVTISFANHTSCRCMSKLD
Take B1: the binding result in assay [1], in assay [2] and in assay [3] was “no binding” throughout.

B2: 73-14 (ligand)
chain: GQNHHEVVKSIDNEWRKTQCMPREVCIDVGKEYPDEIEYIFKPPCVSVYRCGGCCNDEGLECMNTSTSYLSKTLFEITVPLSQGPKPVTISFANHTSCRCMSKLD
On to B2, for which the binding result in assay [1], in assay [2] and in assay [3] was “no binding” each time.

B3: 73-16 (ligand)
chain: GQNHHEVVKSIDNEWRKTQCMPREVCIDVGKEYPDEIEYIFKPPCVSVYRCGGCCNSEGLQCMNTSTSYLSKTLFEITVPLSQGPKPVTISFANHTSCRCMSKLD
As to B3, the binding result in assay [1], in assay [2] and in assay [3] was “no binding” in each case.

B4: 71-14 (ligand)
chain: GQNHHEVVKSIDNEWRKTQCMPREVCIDVGKEYPDEIEYIFKPSCVPLMRCGGCCNDEGLECMNTSTSYLSKTLFEITVPLSQGPKPVTISFANHTSCRCMSKLD
For B4, the binding result in assay [1], in assay [2] and in assay [3] was “no binding” in each case.

B5: 73-9 (ligand)
chain: GQNHHEVVKSIDNEWRKTQCMPREVCIDVGKEYPDEIEYIFKPPCVSVYRCGGCCNDEGLECVPTEESNITMQIMRITVPLSQGPKPVTISFLQHNKCECRPKKD
As for B5, the binding result in assay [1], in assay [2] and in assay [3] was “no binding” throughout.

B6: 33-9 (ligand)
chain: GQNHHEVVKSIDNEWRKTQCMPIETLVDIFQEYPDEIEYIFKPPCVSVYRCGGCCNDEGLECVPTEESNITMQIMRITVPLSQGPKPVTISFLQHNKCECRPKKD
B6: the binding result in assay [1] is recorded as “binds”; in assay [2], “no binding”; in assay [3] it was “no binding”.

B7: 23-9 (ligand)
chain: AHYNTEILKSIDNEWRKTQCMPREVCIDVGKEYPDEIEYIFKPPCVSVYRCGGCCNDEGLECVPTEESNITMQIMRITVPLSQGPKPVTISFLQHNKCECRPKKD
Consider B7, for which the binding result in assay [1], in assay [2] and in assay [3] was “no binding” in each case.

B8: 21-9 (ligand)
chain: AHYNTEILKSIDNEWRKTQCMPREVCIDVGKEYPDEIEYIFKPSCVPLMRCGGCCNDEGLECVPTEESNITMQIMRITVPLSQGPKPVTISFLQHNKCECRPKKD
Take B8: the binding result in assay [1], in assay [2] and in assay [3] was “no binding” throughout.

B9: 33-1 (ligand)
chain: GQNHHEVVKSIDNEWRKTQCMPIETLVDIFQEYPDEIEYIFKPPCVSVYRCGGCCNDEGLECVPTEESNITMQIMRIKPHQGQHIGEMSFLQHNKCECRPKKD
As to B9, the values for the binding result in assay [1], in assay [2] and in assay [3] were “binds”, “no binding” and “no binding”, respectively.

B10: 33-3 (ligand)
chain: GQNHHEVVKSIDNEWRKTQCMPIETLVDIFQEYPDEIEYIFKPPCVSVYRCGGCCNSEGLQCVPTEESNITMQIMRIKPHQGQHIGEMSFLQHNKCECRPKKD
B10: the figures for the binding result in assay [1], in assay [2] and in assay [3] were “binds”, “no binding” and “no binding”, respectively.

These data come from patent publication US20080058263A1 (published 2008).
